Assay: label from the status in PepcDB records

Sequence | protein production
MFWIVLIVILLLALAGLFFVRAQSEREWMREVSAWQEKKGEKQAELPEIKDGMPDFPEFSLMLFHAVKTAVYWLFVGVVRFCRNYLAHESEPDRPVPPASANRADVPTASDGYSDSGNGTEEAETEAAEAAEEEAADTEDIATAVIDNRRIPFDRSIAEGLMQSESKTSPVRPVFKEITLEEATRALSSAALRETKKRYIDAFEKNGTAVPKVRVSDTPMEGLQIIGLDDPVLQRTYSRMFDADKEAFSESADYGFEPYFEKQHPSAFSAVKAENARNAPFRRHAGQEKGQAEAKSPDVSQGQSVSDGTAVRDARRRVSVNLKEPNKATVSAEARISRLIPESRTVVGKRDVEMPSETENVFTETVSSVGYGGPVYDEAADIHIEEPAAPDAWVVEPPEVPEVAVPEIDILPPPPVSEIYNRTYEPPAGFEQAQRSRIAETDHLAADVLNGGWQEETAAIADDGSEGAAERSSGQYLSETEAFGHDSQAVCPFEDVPSERPSCRVSDTEADEGAFQSEETGAVSEHLPTTDLLLPPLFNPEATQTEEELLENSITIEEKLAEFKVKVKVVDSYSGPVITRYEIEPDVGVRGNSVLNLEKDLARSLGVASIRVVETIPGKTCMGLELPNPKRQMIRLSEIFNSPEFAESKSKLTLALGQDITGQPVVTDLGKAPHLLVAGTTGSGKSVGVNAMILSMLFKAAPEDVRMIMIDPKMLELSIYEGITHLLAPVVTDMKLAANALNWCVNEMEKRYRLMSFMGVRNLAGFNQKIAEAAARGEKIGNPFSLTPDDPEPLEKLPFIVVVVDEFADLMMTAGKKIEELIARLAQKARAAGIHLILATQRPSVDVITGLIKANIPTRIAFQVSSKIDSRTILDQMGAENLLGQGDMLFLPPGTAYPQRVHGAFASDEEVHRVVEYLKQFGEPDYVDDILSGGGSEELPGIGRSGDGETDPMYDEAVSVVLKTRKASISGVQRALRIGYNRAARLIDQMEAEGIVSAPEHNGNRTILVPLDNA | failed
MFYHDFRTMLIRLRAQFIKELLCILRDPRNRVVVFVPPLMQLLIFSYAATMEVRNLDIAVYNQDTGRAAQELVWHLEAARFIAQVHHVHSNTALREQLVQGKVIAAIAIPADFSRTVAVSGSGHAQVLVDGRRSNSGQIVVGYLSSIARDIRFTADTAPIPETSVTVRHWFNPNLVYLWFMVPGLTGTLAFFSALMITALSIARERELGTFDQLLVSPASTLEIILSKSLPALVISSLLALLMITLAIWFFRIPFTGSFGLLLIGLVLFILSAVGIGLVISAISMTQQQAILGGFVIGVPTVLISGFATPVENMPLLLQWLAQAIPLTHFLIIIEGCFLKALPPRDVLANLWPLAVIAFTMLPIAMIFARSRLQ | failed
MGAAGGGWRMSERHLRRSTHKVGDVTLGPVHRLSCHCGAVQIDLDLPHGLLDPRRCDCSMCRRRGAIVASVSLDGLHVLQGEDVLRLYQFNTQTAAHYFCGVCGIYTHHRRRSNPNEYGYNVGCLEGVNPYALNIAVPVEDGVNHPADRVTAAS | failed
MGACVCRMNPDNETMSVSSASISRPASAGIAMGAARKNRPLCHETIRWRSDVPLTEGQLRSKRDEFWDTAPAFDGRKEIWDALRAATTAAEGLDFQMAQAILDGANVSVPNGYLTECYDELGTQYKVPIYCLSYPINIVKEENGRDSPAEYSEPVDGGTDIFLKLRISSTMTDVKLPVYSKDTVGQCKKKLQAAEGVDACCQRWFYSGKLLGDKVPIDECSIHQGYVVQVIVNTEHYNHDNSTSTAHAS | failed
MGAIQFQTAPKLPVTVLLAAKNEAVNLPRCLAALGPAERVIVLDSHSTDATAEIARQHGAEVAQFDYRGGYPKKRQWALDTIPFGTPWILLLDADEVVPEDLWKEIGNVTRQPDADAYLITKGFHFLGRKFKHGGFSHSAVLLFKTGMARFEKLFDDDLNGLDMEIHERVVVDGRIGKLKTPLVHEDFKGLEAYITRHNKYSTWEAKVRHHYLTTGRYGEQTIKPRLFGNSQERRRFLKALIIRLPFEPQIWFIYHYLLRLGFLEGRPGLIASQIRAAYIAQARAKIYELRLNTPSRLEHHHHHH | failed
MGATVPQRKALVLKASRILLSEKPLPERLQAFLEALLEGPFPIRSGKLYLRKGEGLRLVAQLGGEAGGEEVALSLEGGGRALGRLSLRLAPAASLAPEDRLALEEAAGILALALLRERAERAERVLRRAGECATQAAGEGDLLHKVCALLVEEGYALAWVGEARPTGEVVPREAAGAVGYLEGIRVRWDEAPEGQGPTGRALRSGRPQVLRSVEEDPRYAPWRERAQVFGFASSAAFPLRVEGRVWGSLNVYAPEEDAFDEEEVRLLEDLARLIGHALDRLRALERLRFLAYHDPLTGLPNRRRLEEDFRLLRGRWALCRLDLVDLYEVNEAYGREAGDALLARTSRRLQALLPREGRLYRLEGGEFLALLPGGAKEAEAFGQALGEALEAPLDLGEGRAFRVRVRAGVALFPDDANTLSELLRRADQALREAKKAGKRWTFYSLGLGEAVRERREVLAGLEKALAEGELRLYGQPIVDLATGRPAGVEVLLRWARGEEVVPASRFIPVAEEAGLIPELDLYVLRALAQMTTALPLHVNLSPQTLLDERLLLGLAPLKGRNLRLELTEHALASPGAEARLKELSCMGFPVVLDDFGQGYASLRLLVGLPFSMAKVDRGFVGGIGLDPKAEAALKAVLALSRELEIALVAEGVEREDQWAWLRSVGYSLGQGYLWGRPAPLEEVLYP | failed
MGCCYSLSSTVDPVQDHTTDASSEPRNGGGEDPPLTKFSFSALKTATNHFSPENIVSDQTSDVVFKGRLQNGGFVAIKRFNNMAWSDPKLFLEEAQRVGKLRHKRLVNLIGYCCDGDKRFLVADFMANDTLAKRLFQRKYQTMDWSIRLRVAYFVAEALDYCNTAGFASYNNLSAYKVLFDEDGDACLSCFGLMKEINNDQITTGSVNPENVIYRFGTVLVNLLSGKQIPPSHAPEMIHRKNVFKLMDPYLKGKFSIDEANVVYKLASQCLKYEGQESPNTKEIVATLETLQTRTEAPSYEVVEMTNQEKDASSSSNLSPLGEACLRMDLASIHSILVLAGYDDDKDIIELSFEEWIQEVKELQDVRRNGDRAFVEQDFKTAIACYSQFVEERSLVYPSVYARRSLSYLFCDEPEKALLDGMHAQGVFPDWPTAFYLQSVALAKLDMNTDSADTLKEAALLEVKK | failed
MGDPAPARSLDDIDLSALRDPAGIFELVEVVGNGTYGQVYKGRHVKTGQLAAIKVMDVTEDEEEEIKQEINMLKKYSHHRNIATYYGAFIKKSPPGNDDQLWLVMEFCGAGSVTDLVKNTKGNALKEDCIAYICREILRGLAHLHAHKVIHRDIKGQNVLLTENAEVKLVDFGVSAQLDRTVGRRNTFIGTPYWMAPEVIACDENPDATYDYRSDIWSLGITAIEMAEGAPPLCDMHPMRALFLIPRNPPPRLKSKKWSKKFIDFIDTCLIKTYLSRPPTEQLLKFPFIRDQPTERQVRIQLKDHIDRSRKKRGEKEETEYEYSGSEEEDDSHGEEGEPSSIMNVPGESTLRREFLRLQQENKSNSEALKQQQQLQQQQQRDPEAHIKHLLHQRQRRIEEQKEERRRVEEQQRREREQRKLQEKEQQRRLEDMQALRREEERRQAEREQEYKRKQLEEQRQSERLQRQLQQEHAYLKSLQQQQQQQQLQKQQQQQLLPGDRKPLYHYGRGMNPADKPAWAREVEERTRMNKQQNSPLAKSKPGSTGPEPPIPQASPGPPGPLSQTPPMQRPVEPQEGPHKSLVAHRVPLKPYAAPVPRSQSLQDQPTRNLAAFPASHDPDPAIPAPTATPSARGAVIRQNSDPTSEGPGPSPNPPAWVRPDNEAPPKVPQRTSSIATALNTSGAGGSRPAQAVRARPRSNSAWQIYLQRRAERGTPKPPGPPAQPPGPPNASSNPDLRRSDPGWERSDSVLPASHGHLPQAGSLERNRVGVSSKPDSSPVLSPGNKAKPDDHRSRPGRPADFVLLKERTLDEAPRPPKKAMDYSSSSEEVESSEDDEEEGEGGPAEGSRDTPGGRSDGDTDSVSTMVVHDVEEITGTQPPYGGGTMVVQRTPEEERNLLHADSNGYTNLPDVVQPSHSPTENSKGQSPPSKDGSGDYQSRGLVKAPGKSSFTMFVDLGIYQPGGSGDSIPITALVGGEGTRLDQLQYDVRKGSVVNVNPTNTRAHSETPEIRKYKKRFNSEILCAALWGVNLLVGTENGLMLLDRSGQGKVYGLIGRRRFQQMDVLEGLNLLITISGKRNKLRVYYLSWLRNKILHNDPEVEKKQGWTTVGDMEGCGHYRVVKYERIKFLVIALKSSVEVYAWAPKPYHKFMAFKSFADLPHRPLLVDLTVEEGQRLKVIYGSSAGFHAVDVDSGNSYDIYIPVHIQSQITPHAIIFLPNTDGMEMLLCYEDEGVYVNTYGRIIKDVVLQWGEMPTSVAYICSNQIMGWGEKAIEIRSVETGHLDGVFMHKRAQRLKFLCERNDKVFFASVRSGGSSQVYFMTLNRNCIMNW | failed
MGDPQVNDTLAPSARHEGDALASAVAKVKRHVLPLFVIMFIVNYLDRVNIGFVRPHLESDLGISAAAYGFGAGLFFIGYALFEVPSNMLLQKVGARLWLTRIMFTWGLVATAMAFVQNETQFYVLRFLLGVAEAGFFPGVIYYFTRWLPAAERGKAIAIFLSGSALASLISGPLAGALMQIQGLGLHGWQWMLFIEGMASVALCFFVFFWLDSKPQDAKWLSKAEQDALVATIDREQQAREAIGAVRPSAWNLLKDRQIVLFCLIYFCIQLTIYAATFWLPSIIKRMGDLSDMQVGFFNSIPWLISILAMYAFAAGSARWKFQQAWVAGALLVAATGMFMSTTGGPVFAFVAVCFAAIGFKSASSLFWPIPQGYLDARIAAAVIALINSVGNLGGFVAPTTFGLLEQQTGSIQGGLYGLAVTSVLAAIAIFFVRTRPKGAPSDDLKAPSALGQTH | failed
MGDSHDVCRQLLPRAIFGINGKVENGVRQHPVTGSIIFALGNKIGIADYKKNTQEFVAGHTNTISCLDLSKSGKYMASGQINHMGFRGYVIIWNYDQRKEIARHDLHKVSVQAICFTAQDRCVVSIGGVDDGSVIVFDMEAFSPICQTPASRAISGNALTVRPLHNNPYFFVTAGDRHLRLWSILREEKKLYVQDVLMASKTRVFYCARINKTDEFAYLGTGTGDIVKIVLNCCDRDHVSKQGSTSCILGAFGTHNPRKPTGRDCNRYVNGVRALYVLEGGRLLIGAGNGDIELVEERTDVPLINFRDYPGPTWPYLRTLKKTHVSGRISSFVRSKTDMFYICTDTNEIYGLNIKTWVLKLLRTCHTKSVYCITFPKNYSGVFATSGKECIRIWSSGRKQELLRIMVYNFNCACVRFTHDGTSIVSVWNDGIIRAFTPITGRLIYAIPNAHNKGCSALAVASSGRLIVTGGIEGQVRVWKIDPYRQDLVGVLKDHSGPITSLDINYLDTEVISACTDGSCVIWDIKRMTRKQVVTANTQFMSASYFPTGVQVITCGSDGRIIYWMVYNGALIRELTASKKSSVNCLAINETGDYFITVGSDLQVKLWDYNSGAVVGIGSEHASSVISCAYSPCMTMFVTGSTDGSLIIWDVPRDFWGRPNPPDVTKYSLPKTSSKTRMSDVPSRVNSGTNLKTTKGENIDGLLKATPKDDLCCVECPPCAKKDTKGVDPYAECGIVPDVRKC | failed
MGEEEMPVHPDLEAFIESIPWHRHLGLKVLALHPGHARLVIPFQAGFTGNAARGALHGGIIASLADSCGNAALWTHFGPDDRIATINIGVDYFRPAPLADLMAEAEVRLLGNRIGNVHVRLAPLAEPSQTVAEGRTVCYVKRMSLEHHHHHH | failed

Source: a protein production outcome set (Wang et al. 2014)
